According to patent publication US20120058906A1 (published 2012):
Blank lines part the entries; values can stand above or below the binder they belong to.

Key:
[1] = target: T1, rHuman IGF-1 sR (IGF-1 sR), CF (R&D Systems Cat#391-GR) (human, UniProt P08069 31-932); experiment: MSD ECL multi-spot plate, antigen immobilized; Fab 40 nM; blank spot 518
T1 construct: Purchased soluble receptor; also called insulin-like growth factor-1 soluble receptor; IGF-R1

[2] = target: T2, rHuman P-Cadherin/Fc Chimera, CF (R&D Systems Cat#861-PC) (human, UniProt P22223 108-654); experiment: as above
T2 construct: Purchased Fc chimera; not shown: Fc portion of the purchased chimera

[3] = target: T3, rHuman Erythropoietin R/Fc Chimera, CF (R&D Systems Cat#963-ER) (human, UniProt P19235 25-250); experiment: as above
T3 construct: Purchased Fc chimera; also called EPO R/Fc; Epo R; not shown: Fc portion of the purchased chimera
T3 sequence: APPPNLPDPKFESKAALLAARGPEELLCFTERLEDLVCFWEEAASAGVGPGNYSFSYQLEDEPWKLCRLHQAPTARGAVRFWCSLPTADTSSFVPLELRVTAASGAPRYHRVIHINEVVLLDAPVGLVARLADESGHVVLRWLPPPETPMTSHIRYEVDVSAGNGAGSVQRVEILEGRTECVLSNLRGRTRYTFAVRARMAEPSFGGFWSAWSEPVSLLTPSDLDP

[4] = target: T4, Recombinant Human DLL4 (R&D Systems Cat#1506-D4/CF) (human, UniProt Q9NR61 27-524); experiment: as above
T4 construct: Purchased recombinant protein; also called delta-like protein 4

[5] = target: T5, rHuman ErbB2/Fc Chimera, CF (R&D Systems Cat#1129-ER) (human, UniProt P04626 23-652); experiment: as above
T5 construct: Purchased Fc chimera; also called HER2/neu; not shown: Fc portion of the purchased chimera

[6] = target: T6, rHuman EGF R/Fc Chimera, CF (R&D Systems Cat#344-ER) (human, UniProt P00533 25-645); experiment: as above
T6 construct: Purchased Fc chimera; not shown: Fc portion of the purchased chimera

[7] = target: T7, rHuman HGF R/c-MET/Fc Chimera, CF (R&D Systems Cat#358-MT/CF) (human, UniProt P08581 25-932); experiment: as above
T7 construct: Purchased Fc chimera; also called HGF R/Fc; not shown: Fc portion of the purchased chimera

[8] = target: T8, rHuman Notch-1/Fc Chimera, CF (R&D Systems Cat#3647-TK) (human, UniProt P46531 19-526); experiment: as above
T8 construct: Purchased Fc chimera; not shown: Fc portion of the purchased chimera

[9] = target: T9, rHuman CD44/Fc Chimera, CF (R&D Systems Cat#3660-CD) (human, UniProt P16070 21-220); experiment: as above
T9 construct: Purchased Fc chimera; not shown: Fc portion of the purchased chimera

[10] = target: T1, rHuman IGF-1 sR (IGF-1 sR), CF (R&D …); experiment: MSD ECL multi-spot plate, antigen immobilized; Fab 8 nM; blank spot 479
[11] = target: T2, rHuman P-Cadherin/Fc Chimera, CF (R&D …); experiment: as above
[12] = target: T3, rHuman Erythropoietin R/Fc Chimera, CF …; experiment: as above
[13] = target: T4, Recombinant Human DLL4 (R&D Systems …); experiment: as above
[14] = target: T5, rHuman ErbB2/Fc Chimera, CF (R&D …); experiment: as above
[15] = target: T6, rHuman EGF R/Fc Chimera, CF (R&D …); experiment: as above
[16] = target: T7, rHuman HGF R/c-MET/Fc Chimera, CF (R&D …); experiment: as above
[17] = target: T8, rHuman Notch-1/Fc Chimera, CF (R&D …); experiment: as above
[18] = target: T9, rHuman CD44/Fc Chimera, CF (R&D Systems …); experiment: as above
[19] = target: T10, rHuman Notch-1/Fc Chimera, CF (R&D Systems Cat#3647-TK) (human, UniProt P46531 19-526); experiment: MSD ECL multi-spot plate; Fab 2.0 nM; blank spot 316
T10 construct: Fc part of the bought chimera not given

[20] = target: T11, rHuman CD44/Fc Chimera, CF (R&D Systems Cat#3660-CD) (human, UniProt P16070 21-220); experiment: as above
T11 construct: Fc part of the bought chimera not given
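Also: blank spot per well as comparator with Hit at signal to blank ratio of 4 or more.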

- ECL signal [1]: 1270 ECL signal
- ECL signal [2]: 744 ECL signal
- ECL signal [3]: 979 ECL signal
- ECL signal [4]: 35900 ECL signal
- ECL signal [5]: 1390 ECL signal
- ECL signal [6]: 1150 ECL signal
- ECL signal [7]: 1310 ECL signal
- ECL signal [8]: 875 ECL signal
- ECL signal [9]: 857 ECL signal
B1: Fab VH5-51_IGHD5-18*01>3_IGHJ4*01_G100K & V3-4_IGLJ1*01 (Fab, V domains shown)
VH: EVQLVQSGAEVKKPGESLKISCKGSGYSFTSYWIGWVRQMPGKGLEWMGIIYPGDSDTRYSPSFQGQVTISADKSISTAYLQWSSLKASDTAMYYCARRKYSYGYDYFDYWGQGTLVTVSS
VL: QTVVTQEPSFSVSPGGTVTLTCGLSSGSVSTSYYPSWYQQTPGQAPRTLIYSTNTRSSGVPDRFSGSILGNKAALTITGAQADDESDYYCVLYMGSGISYVFGTGTKVTVL
notes: It was expressed as a Fab: CH1 with tags from Plasmid A and lambda CL from Plasmid E; also called Fab No. 22

- ECL signal [10]: 1110 ECL signal
- ECL signal [11]: 669 ECL signal
- ECL signal [12]: 911 ECL signal
- ECL signal [13]: 5470 ECL signal
- ECL signal [14]: 1330 ECL signal
- ECL signal [15]: 1080 ECL signal
- ECL signal [16]: 1240 ECL signal
- ECL signal [17]: 916 ECL signal
- ECL signal [18]: 786 ECL signal
B2: Fab VH5-51_IGHD5-18*01>3_IGHJ4*01_G100R & V3-4_IGLJ1*01 (Fab, V domains shown)
VH: EVQLVQSGAEVKKPGESLKISCKGSGYSFTSYWIGWVRQMPGKGLEWMGIIYPGDSDTRYSPSFQGQVTISADKSISTAYLQWSSLKASDTAMYYCARRRYSYGYDYFDYWGQGTLVTVSS
VL: QTVVTQEPSFSVSPGGTVTLTCGLSSGSVSTSYYPSWYQQTPGQAPRTLIYSTNTRSSGVPDRFSGSILGNKAALTITGAQADDESDYYCVLYMGSGISYVFGTGTKVTVL
notes: It was expressed as a Fab: CH1 with tags from Plasmid A and lambda CL from Plasmid E; also called Fab No. 23

- ECL signal [19]: 539 ECL signal
- ECL signal [20]: 447 ECL signal
B3: Fab VH1-8_IGHD2-2*01_IGHJ6*01 & L12_IGKJ1*01 (Fab, V domains shown)
VH: QVQLVQSGAEVKKPGASVKVSCKASGYTFTSYDINWVRQATGQGLEWMGWMNPNSGNTGYAQKFQGRVTMTRNTSISTAYMELSSLRSEDTAVYYCARGGYCSSTSCYADYYYYYGMDVWGQGTTVTVSS
VL: not shown
